{
  "source": "patent US6559282B1",
  "about": "“Artificial T helper cell epitopes as immune stimulators for synthetic peptide immunogens including immunogenic LHRH peptides” (United Biomedical, Inc., priority 1998, dated 2003)",
  "key": {"LHRH": {"molecular_target": "T1, LHRH (Rattus norvegicus, UniProt P07490)", "T1 construct": "from tissue; host or cells: living male rats (in vivo, endogenous hormone)", "assay": "Serum testosterone RIA in rats immunized with LHRH peptide immunogens (immunocastration)", "type": "in vivo, Sprague-Dawley rats, male", "conditions": "i.m., serum at weeks 10 or 12", "procedure": "B. Protocols for immunization. The LHRH peptide immunogens shown in Tables 2a and 2b were evaluated on groups of 5 to 10 rats as specified by the experimental immunization protocol outlined below and by serological assays for determination of immunogenicity on serum samples:\nBlood was collected and processed into serum, and stored prior to ELISA and radioimunoassay (RIA) for determination of serum testosterone values.\nD. Determination of immunogen efficacy. Immunogens were evaluated for efficacy by RIA for serum testosterone values. Serum testosterone levels were measured using an RIA kit from Diagnostic Products (Los Angeles, Calif.) according to manufacturer's instructions. The lower detection limit for testosterone ranged from 0.01 to 0.03 nmol/L. Each sample was analyzed in duplicate. Serum samples were scored as being at castration level when the testosterone level was below limits of detection and as “near castration” at <0.1 nmol/L. Results were verified by comparison to testosterone levels in serum from mechanically castrated rats.\nE. Results. […] The efficacy of the anti-peptide antibody responses, consequential to the cross-reactivity to natural LHRH, was established by determining serum testosterone levels. Those results are summarized in the right columns of Tables 2a and 2b as numbers of animals having castration level serum testosterone per total animals in the group."}, "artificial Th epitope": {"system": "artificial Th epitope", "assay": "ELISA of immune rat sera on the Th epitope peptide (antibody specificity)", "type": "in vivo, rats", "conditions": "25 μg doses on Alum at 0 and 3 weeks; sera diluted 1:100; ELISA on respective Th peptide"}, "[1]": {"system": "LHRH peptide (SEQ ID NO:77)", "assay": "ELISA of immune rat sera on LHRH peptide-coated plates (immunogenicity)", "type": "in vivo, Sprague-Dawley rats, male", "conditions": "25 μg doses on Alum at 0 and 3 weeks; ELISA peptide SEQ ID NO: 28", "procedure": "C. Method for determination of immunogenicity. Antibody activities were determined by ELISA (enzyme-linked immunosorbent assays) using 96-well flat bottom microtiter plates which were coated with the LHRH peptide (SEQ ID NO:77) as immunosorbent. Aliquots (100 μL) of the peptide immunogen solution at a concentration of 5 μg/mL were incubated for 1 hour at 37° C. The plates were blocked by another incubation at 37° C. for 1 hour with a 3% gelatin/PBS solution. The blocked plates were then dried and used for the assay. Aliquots (100 μL) of the test immune sera, starting with a 1:100 dilution in a sample dilution buffer and ten-fold serial dilutions thereafter, were added to the peptide coated plates. The plates were incubated for 1 hour at 37° C.\nThe plates were washed six times with 0.05% Tween® in PBS. 100 μL of horseradish peroxidase labeled goat-anti-rat IgG antibody was added at appropriate dilutions in conjugate dilution buffer (Phosphate buffer containing,0.5M NaCl, and normal goat serum). The plates were incubated for 1 hour at 37° C. before being washed as above. Aliquots (100 μL) of o-phenylenediamine substrate solution were then added. […] The A492 nm of the contents of each well was read in a plate reader. ELISA titers were calculated based on linear regression analysis of the absorbances, with cutoff A492 nm set at 0.5. […]"}},
  "note": "Marks after values point to notes of the source that are not given here.",
  "data": [
    {"substance": "38 (EISEIRGIIIHRIEGIGGEHWSYGLRPG) [compound 38]", "values": [
      {"measurement": "no. castrated (animals having castration level serum testosterone per total animals in the group)", "setting": "LHRH; 25 μg/dose, Alum (0,3 wpi)", "value": "5/6"}
    ]},
    {"substance": "40 (DFSDFKGFFFHKFDGFGGEHWSYGLRPG) [compound 40]", "values": [
      {"measurement": "no. castrated (animals having castration level serum testosterone per total animals in the group)", "setting": "LHRH; 25 μg/dose, Alum (0,3 wpi)", "value": "4/8"}
    ]},
    {"substance": "48 (LTEMRTVIVTRMETVGGEHWSYGLRPG) [compound 48]", "values": [
      {"measurement": "no. castrated (animals having castration level serum testosterone per total animals in the group)", "setting": "LHRH; 25 μg/dose, Alum (0,3 wpi)", "value": "1/6"}
    ]},
    {"substance": "33 (KKKMMTMTRMITMITTID) [compound 33]", "values": [
      {"measurement": "no. castrated (animals having castration level serum testosterone per total animals in the group)", "setting": "LHRH; 25 μg/dose, Alum (0,3 wpi)", "value": "5/5"}
    ]},
    {"substance": "43 (LSEIKGVIVHKLEGVGGEHWSYGLRPG) [compound 43]", "values": [
      {"measurement": "no. castrated (animals having castration level serum testosterone per total animals in the group)", "setting": "LHRH; 25 μg/dose, Alum (0,3 wpi)", "value": "14/14"},
      {"measurement": "no. castrated (animals having castration level serum testosterone per total animals in the group)", "setting": "LHRH; 100 μg/dose, IFA (0,3,6 wpi)", "value": "6/6"}
    ]},
    {"substance": "47 (MSEIKGVIVHKLEGMGGEHWSYGLRPG) [compound 47]", "values": [
      {"measurement": "no. castrated (animals having castration level serum testosterone per total animals in the group)", "setting": "LHRH; 25 μg/dose, Alum (0,3 wpi)", "value": "2/6"}
    ]},
    {"substance": "35 (KKKFITMDTKFLLASTHIL) [compound 35]", "values": [
      {"measurement": "no. castrated (animals having castration level serum testosterone per total animals in the group)", "setting": "LHRH; 25 μg/dose, Alum (0,3 wpi)", "value": "2/6"}
    ]},
    {"substance": "29 (KKKFFFFTKFFTFPVSFD) [compound 29]", "values": [
      {"measurement": "no. castrated (animals having castration level serum testosterone per total animals in the group)", "setting": "LHRH; 400 μg/dose, Alum (0,3,6 wpi)", "value": "5/5"},
      {"measurement": "no. castrated (animals having castration level serum testosterone per total animals in the group)", "setting": "LHRH; 400 μg/dose, IFA (0,3,6 wpi)", "value": "8/10"}
    ]},
    {"substance": "32 (KKKIITITRIITIITTI) [compound 32]", "values": [
      {"measurement": "no. castrated (animals having castration level serum testosterone per total animals in the group)", "setting": "LHRH; 25 μg/dose, Alum (0,3 wpi)", "value": "1/6"}
    ]},
    {"substance": "39 (DVSDVKGVVVHKVDGVGGEHWSYGLRPG) [compound 39]", "values": [
      {"measurement": "no. castrated (animals having castration level serum testosterone per total animals in the group)", "setting": "LHRH; 25 μg/dose, Alum (0,3 wpi)", "value": "3/6"}
    ]},
    {"substance": "30 (KKKLFLLTKLLTLPFSLD) [compound 30]", "values": [
      {"measurement": "no. castrated (animals having castration level serum testosterone per total animals in the group)", "setting": "LHRH; 400 μg/dose, Alum (0,3,6 wpi)", "value": "2/5"},
      {"measurement": "no. castrated (animals having castration level serum testosterone per total animals in the group)", "setting": "LHRH; 400 μg/dose, IFA (0,3,6 wpi)", "value": "9/10"}
    ]},
    {"substance": "54 (ISMTEIRTVIVTRMETMLFGGEHWSYGLRPG) [compound 54]", "values": [
      {"measurement": "no. castrated (animals having castration level serum testosterone per total animals in the group)", "setting": "LHRH; 25 μg/dose, Alum (0,3 wpi)", "value": "0/8"}
    ]},
    {"substance": "42 (MTEIRTVIVTRMETMGGEHWSYGLRPG) [compound 42]", "values": [
      {"measurement": "no. castrated (animals having castration level serum testosterone per total animals in the group)", "setting": "LHRH; 25 μg/dose, Alum (0,3 wpi)", "value": "6/6"}
    ]},
    {"substance": "41 (ISEIKGVIVHKIEGIGGEHWSYGLRPG) [compound 41]", "values": [
      {"measurement": "no. castrated (animals having castration level serum testosterone per total animals in the group)", "setting": "LHRH; 25 μg/dose, Alum (0,3 wpi)", "value": "6/6"},
      {"measurement": "Th Reactivity: number of animals with anti-Th reactivity >0.100 A490/total animals immunized", "setting": "artificial Th epitope", "value": "0/6^c"},
      {"measurement": "LHRH Reactivity: number of animals with anti-LHRH titers >1:1000/total animals immunized", "setting": "[1]", "value": "6/6"}
    ]},
    {"substance": "37 (DLSDLKGLLLHKLDGLGGEHWSYGLRPG) [compound 37]", "values": [
      {"measurement": "no. castrated (animals having castration level serum testosterone per total animals in the group)", "setting": "LHRH; 25 μg/dose, Alum (0,3 wpi)", "value": "0/6"}
    ]},
    {"substance": "34 (FITMDTKFLLASTHIL) [compound 34]", "values": [
      {"measurement": "no. castrated (animals having castration level serum testosterone per total animals in the group)", "setting": "LHRH; 25 μg/dose, Alum (0,3 wpi)", "value": "1/8"},
      {"measurement": "no. castrated (animals having castration level serum testosterone per total animals in the group)", "setting": "LHRH; 100 μg/dose, IFA (0,3,6 wpi)", "value": "4/6"}
    ]}
  ]
}
